{"source": "patent US20230071283A1", "about": "“COMPOSITIONS AND METHODS FOR SELECTIVE PROTEIN EXPRESSION” (Novartis AG, priority 2017, published 2023)", "key": {"[1]": {"test_system": "NALM6, a CD19+ target cell line", "assay": "Cytokine secretion in co-culture with target cells", "conditions": "presence or absence of bazedoxifene; 20 hours; versus parental CAR19"}, "NALM6 (CD19+)": {"test_system": "NALM6 (CD19+)", "assay": "Killing assay with luciferized target cells (remaining luciferase activity)", "conditions": "presence or absence of bazedoxifene; 20 hours; versus parental CAR19"}, "CD19+ NALM6 cells": {"test_system": "CD19+ NALM6 cells", "assay": "Proliferation assay in co-culture with target cells (FACS, counting beads)", "conditions": "presence or absence of bazedoxifene; 4 days; versus parental CAR19"}, "primary human T cells": {"test_system": "primary human T cells", "assay": "FurON CAR19 surface expression in primary human T cells (FACS, protein L)", "format": "cell-based", "conditions": "cells prepared for the in vivo study; IL2 and 1 uM bazedoxifene; day 10", "protocol": "Bazedoxifene and raloxifene were resuspended in DMSO. In all instances, where concentrations not indicated, compounds were added at 1 uM for 24 hours prior to analysis by flow cytometry.\n. […] Cell number, size, and viability were also assessed.\nUntransduced T cells (UTDs) and the parental CAR19 were used as controls. […] .\nCART cells were generated by starting with blood from healthy apheresed donors whose naïve T cells were obtained by negative selection for T cells, CD4+ and CD8+ lymphocytes. These cells were activated by the addition of CD3/CD28 beads (Dynabeads® Human T-Expander CD3/CD28, Thermo Fisher Scientific) at a ratio of 1:3 (T cell to bead) in T cell medium (RPMI1640, 10% heat-inactivated fetal calf serum (FCS), 2 mM L-glutamine, lx Penicillin/Streptomycin, 100 μM non-essential amino acids, 1 mM Sodium Pyruvate, 10 mM Hepes, and 55 μM 2-mercaptoethanol) at 37° C., 5% CO2. T cells were cultured at 4×10^6 T cells (UTDs) or 5×10^6 (CART19 and FurON CART19) in 1 mL medium per well of a 24-well plate. […] T cells began to divide in a logarithmic growth pattern, which is monitored by measuring the cell counts per mL, and T cells are diluted in fresh medium every two days. […] On day 10 the cells are collected and the percentage of cells transduced (expressing the CD19-specific CAR on the cell surface) was determined by flow cytometry analysis on a FACS Fortessa (BD). […]"}}}
{"molecule": "construct #130: furin degron with fewer mutations (ERmut2) fused to anti-CD19 scFV CAR; same furin cleavage sequence as #106 (protein) RSSLALSLTADQMVSALLDAEPPILYSEYDPTRPFSEASMMGLLTNLADRELVHMINWAKRVPGFVDLTLHDQVHLLECAWMEILMIGLVWRSMEHPGKLLFAPNLLLDRNQGKCVEGGVEIFDMLLATSSRFRMMNLQGEEFVCLKSIILLNSGVYTFLSSTLKSLEEKDHIHRVLDKITDTLIHLMAKAGLTLQQQHQRLAQLLLILSHIRHMSNKRMEHLYSMKCKNVVPLSDLLLEMLDAHRLGTGAEDPRPSRKRRSLGDVGEIVMTQSPATLSLSPGERATLSCRASQDISKYLNWYQQKPGQAPRLLIYHTSRLHSGIPARFSGSGSGTDYTLTISSLQPEDFAVYFCQQGNTLPYTFGQGTKLEIKGGGGSGGGGSGGGGSQVQLQESGPGLVKPSETLSLTCTVSGVSLPDYGVSWIRQPPGKGLEWIGVIWGSETTYYSSSLKSRVTISKDNSKNQVSLKLSSVTAADTAVYYCAKHYYYGGSYAMDYWGQGTLVTVSSTTTPAPRPPTPAPTIASQPLSLRPEACRPAAGGAVHTRGLDFACDIYIWAPLAGTCGVLLLSLVITLYCKRGRKKLLYIFKQPFMRPVQTTQEEDGCSCRFPEEEEGGCELRVKFSRSADAPAYKQGQNQLYNELNLGRREEYDVLDKRRGRDPEMGGKPRRKNPQEGLYNELQKDKMAEAYSEIGMKGERRRGKGHDGLYQGLSTATKDTYDALHMQALPPR", "values": [{"measurement": "levels of IFNγ", "setting": "[1]", "result": "secrete cytokines in the presence of CD19+ tumor cells, in a manner that is stabilizing compound-dependent and is noninferior to the parental CAR construct"}, {"measurement": "Percent tumor lysis", "setting": "NALM6 (CD19+)", "result": "kill CD19+ tumor cells, in a stabilizing compound- and target-dependent manner and is noninferior to the parental CAR construct"}, {"measurement": "Proliferation", "setting": "CD19+ NALM6 cells", "result": "proliferate in the presence of CD19+ tumor cells, in a manner that is stabilizing compound-dependent and is noninferior to the parental CAR construct"}, {"measurement": "surface expression (mean fluorescence intensity, MFI)", "setting": "primary human T cells", "result": "lower than the observed for CART19"}]}
